In test [1] the target is T1, TNFR2 on human K562 chronic myeloid leukemia cells and on primary human Treg cells (human, UniProt P20333 23-461).
T1 construct: whole, on cells; also called K562 cells
T1 sequence (looked up): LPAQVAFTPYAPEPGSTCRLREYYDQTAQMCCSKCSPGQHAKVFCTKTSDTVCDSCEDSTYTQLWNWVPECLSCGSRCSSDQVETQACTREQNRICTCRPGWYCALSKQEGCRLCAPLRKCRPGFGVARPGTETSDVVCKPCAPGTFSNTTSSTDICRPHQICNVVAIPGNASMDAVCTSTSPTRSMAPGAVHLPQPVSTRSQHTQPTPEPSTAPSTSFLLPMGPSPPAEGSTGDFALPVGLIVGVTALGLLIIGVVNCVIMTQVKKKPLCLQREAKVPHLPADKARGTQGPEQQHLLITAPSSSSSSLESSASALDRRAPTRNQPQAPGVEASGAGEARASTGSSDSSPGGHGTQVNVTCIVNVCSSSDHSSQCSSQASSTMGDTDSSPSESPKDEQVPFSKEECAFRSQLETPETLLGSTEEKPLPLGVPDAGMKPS
Put plainly: flow cytometry on primary human Treg cells, MFI(FL2); unit taken from the axis Conc log(nM). The protocol: Tregs were prepared as follows: Human PBMC cells ([…], PB005F) were thawed, CD4⁺ CD25⁺ CD127^low cells were sorted by flow cytometry, and Treg cells were isolated. According to CD4⁺:anti-CD3/CD28 Beads=1:1, Dynabeads Human T-Activator CD3/CD28 (Gibco, 11131D) was added, followed by 10 ng/mL recombinant IL2, and the cells were stimulated for 7 days.
Assay steps: The mixture was centrifuged at 400 g for 5 min, and the cell medium was removed. K562 or Treg cells were resuspended in PBS. After counting, the cells were adjusted to a density of 2×10⁶/mL, and the cell suspension was added to a U-bottom 96-well plate at 100 μL/well. The test antibody was added, subjected to a three-fold gradient dilution, and left to stand on ice for 30 min. The mixture was centrifuged at 300 g for 5 min, and the supernatant was removed. The cells were washed once with PBS. The mixture was centrifuged at 300 g for 5 min, and PBS was removed. 100 μL of PE-anti-human Fc antibody (SOUTHERN BIOTECH, 2040-09) diluted at a ratio of 1:200 was added to each well. The mixture was incubated on ice for 30 min in the dark. The mixture was centrifuged at 400 g for 5 min, and the supernatant was removed. The cells were washed twice with PBS. The cells were resuspended in 100 μL of PBS and assayed by using a flow cytometer (BD, ACCURIC6 plus).
In general terms: In flow cytometry, cells or beads pass a laser one at a time.

For test [2], the target named is T2, human TNFR2 overexpressed on CHO-S cells (CHOS-hTNFR2) (human, UniProt P20333 23-461).
T2 construct: also called hTNFR2 CHO-S; human TNFR2 molecule overexpressed on CHO-S cells
T2 sequence: T1 sequence (looked up)
Put plainly: flow cytometry on CHO-S cells overexpressing human TNFR2 (positive control beside the hybridoma antibodies), MFI. The protocol:
In the study, the binding of the hybridoma antibodies (3C4, 69B1, and 72G8) of the present invention, after being diluted in a gradient, to a stable CHO-S cell strain overexpressing human TNFR2 on the surface was assayed by using a flow cytometer.
CHOS-hTNFR2 cells or CHOS-cTNFR2 cells were counted and diluted to 2×10⁶ cells/mL, and added to a U-bottom 96-well plate at 100 μL/well. The mixture was centrifuged at 300 g for 5 min, and the cell medium was removed. The dilutions of the samples (the hybridoma antibodies 3C4, 69B1, and 72G8 and the positive control antibody OPI) (the antibodies were subjected to a two-fold serial dilution in PBS from the maximum antibody concentration of 300 nM) were added to the U-plate, and the cells were resuspended at 100 μL/well and left to stand on ice for 30 min. The suspension was centrifuged at 400 g for 5 min, and the supernatant was removed. The cells were washed twice with PBS. The mixture was centrifuged at 300 g for 5 min, and PBS was removed. […] The mixture was centrifuged at 400 g for 5 min, and the supernatant was removed. The cells were washed 3 times with PBS. The cells were resuspended in 200 μL of 1×PBS and assayed by FACS.

In test [3] the target is T3, hTNFR2 protein (coated on the microplate in the blocking ELISA) (human, UniProt P20333 23-257).
T3 construct: The construct coated in the ELISA is not described (it may or may not be the immunogen, Sino biological 10417-H03H)
T3 sequence (looked up): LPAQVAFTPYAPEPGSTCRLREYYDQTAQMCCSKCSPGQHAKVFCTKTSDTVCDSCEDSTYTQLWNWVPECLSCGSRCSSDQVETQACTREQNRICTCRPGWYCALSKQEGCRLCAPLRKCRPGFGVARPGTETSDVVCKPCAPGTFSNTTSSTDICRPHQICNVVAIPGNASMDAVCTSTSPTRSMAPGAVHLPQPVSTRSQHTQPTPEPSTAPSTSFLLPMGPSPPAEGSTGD
Put plainly: blocking ELISA: hTNFR2 coated on the plate, binding of biotinylated TNFα blocked by the antibody, Avidin-HRP. The protocol: The ability of the hybridoma antibodies 3C4, 69B1, and 72G8 and the control antibody OPI to block the binding of human TNFα to hTNFR2 was assayed by ELISA.
The hTNFR2 protein was resuspended and dissolved to a concentration of 2 μg/mL with PBS, and a microplate was coated with the protein and incubated overnight. The plate was blocked with 5% BSA for 1 h, and a biotinylated antigen (Recombinant Biotinylated TNFα protein (ACRO)) was diluted to 3 μg/mL and added to the plate at 20 μL/well. The antibodies prepared as described above (3C4, 69B1, and 72G8) were each diluted in a gradient starting from the maximum concentration of 300 nM for a total of 8 or 12 dilution gradients. The diluted antibodies were added at 200 μL/well and incubated in PBS on ice for 30 min. The antigen-antibody mixture was incubated in a microplate for 90 min and washed three times with PBS, and the supernatant was discarded. 100 μL of Avidin-HRP (Invitrogen) diluted at a 1:5000 ratio was added to each well, incubated at room temperature for 30 min, and washed six times with PBS. A TMB chromogenic solution (solarbio) was added to the plate at 100 μL/well for color development for 1 min, and the reaction was stopped by adding a stop buffer (solarbio) at 100 μL/well. The plate was read on a microplate reader at OD₄₅₀ and OD₆₂₀.

The text below walks through data of patent US20240026019A1 (Innovent, published 2024).

B1: positive control antibody OPI (humanized antibody SBT-002e in WO 2017083525) (antibody, V domains shown)
VH: QVTLKESGPALVKPTQTLTLTCTFSGFSLSTSGMGVGWIRQPPGKALEWLAHIWWDDDKFYNPSLKSRLTISKDTSKNQVVLTMTNMDPVDTATYYCARLTGTRYFDYWGQGTTVTVSS
VL: DVQMTQSPSSLSASVGDRVTITCKASQDINKFIAWYQQKPGKAPKLLIHYTSTLQPGIPSRFSGSGSGRDYTFTISSLQPEDIATYYCLQYGNLWTFGGGTKVEIK
notes: also called Benchmark OPI
Regarding B1, the EC50 (as a rule, the midpoint of the concentration-response curve) in test [1] is 0.0738 nM. In test [2], the EC50 (read off the curve) (in general, the concentration needed to bring the measured effect to its halfway point) is ~2 nM. For the same molecule, in test [3], the “IC50 (read off the curve)” value was ~6 nM.
